Measured values as given in US20240026037A1 (Memorial Sloan Kettering, published 2024).
Substitutions are numbered along the chain they refer to. In names and notes the source's numbering stands.

T1: Human GPA33 (recombinant protein, Novoprotein) (human, UniProt Q99795 22-235)
T1 construct: Bought recombinant protein immobilized on a CM5 chip; also called GPA33 antigen; tumor antigen GPA33
T1 sequence: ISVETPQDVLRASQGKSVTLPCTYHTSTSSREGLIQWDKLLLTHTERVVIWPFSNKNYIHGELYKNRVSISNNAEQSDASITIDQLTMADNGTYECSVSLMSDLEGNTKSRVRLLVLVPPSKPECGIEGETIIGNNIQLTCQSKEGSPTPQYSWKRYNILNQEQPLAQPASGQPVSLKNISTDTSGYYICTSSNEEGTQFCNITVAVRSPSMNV

T2: Human GPA33 on GPA33+ colorectal cancer cell lines (Colo 205, LS 174T, SW 1222) (human, UniProt Q99795 22-319)
T2 construct: Endogenous GPA33 on human colorectal cancer cell lines; also called surface human GPA33; GPA33+ tumor cell lines
T2 sequence: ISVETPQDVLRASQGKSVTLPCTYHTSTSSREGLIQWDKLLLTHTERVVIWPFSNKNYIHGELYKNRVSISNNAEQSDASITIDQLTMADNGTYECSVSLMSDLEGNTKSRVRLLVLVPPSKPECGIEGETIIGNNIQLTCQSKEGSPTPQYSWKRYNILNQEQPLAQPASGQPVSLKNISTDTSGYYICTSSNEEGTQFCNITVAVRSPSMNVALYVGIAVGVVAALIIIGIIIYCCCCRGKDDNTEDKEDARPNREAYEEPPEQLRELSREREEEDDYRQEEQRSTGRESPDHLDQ

B1: TC213 (bispecific antibody)
chain: EVQLVESGGGLVDPGGSLRLSCAASGFAFSTYDMSWVRQAPGKGLEWVSTISSGGSYTYYADSVKGRFTISRDNAANSLYLQMNSLRAEDTAVYYCAPTTVVPFAYWGQGTLVTVSAGGGGSGGGGSGGGGSGGGGSGGGGSGGGGSDIQMTQSPSSLSASVGDRVTITCKASQNVRTVVAWYQQKPGKAPKTLIYLASNRHTGVPSRFSGSGSGTEFTLTISNLQPEDFATYYCLQHWSYPLTFGSGTKLEVKRGGGGSGGGGSGGGGSGGGGSHVQLVESGGGLVQPGGSLRLSCAASGFSLTDYGVHWVRQAPGKGLEWLGVIWSGGGTAYNTALISRFTISRDNSKNTLYLQMNSLRAEDTAVYYCARRGSYPYNYFDAWGCGTLVTVSSGGGGSGGGGSGGGGSGGGGSGGGGSGGGGSQAVVTQEPSLTVSPGGTVTLTCGSSTGAVTASNYANWVQQKPGQCPRGLIGGHNNRPPGVPARFSGSLLGGKAALTLLGAQPEDEAEYYCALWYSDHWVIGGGTKLTVLGTPLGDTTHTSGKPLDGEYFTLQIRGRERFEMFRELNEALELKDAQAGKEPGGSGGAPHHHHHH
notes: pI variant of TC170 with a double mutation in the GPA33 scFv; Carries the p53 SADA (tetramerization) domain; also called GPA33xDOTA SADA; pI variant of TC170
B2: TC235 (bispecific antibody)
chain: B1 chain with K189Q
notes: pI variant of TC170 with a triple mutation in the GPA33 scFv; Carries the p53 SADA (tetramerization) domain; also called GPA33xDOTA SADA; pI variant of TC170
B3: TC171 (bispecific antibody)
chain: DIQMTQSPSSLSASVGDRVTITCKASQNVRTVVAWYQQKPGKAPKTLIYLASNRHTGVPSRFSGSGSGTEFTLTISNLQPEDFATYYCLQHWSYPLTFGSGTKLEVKRGGGGSGGGGSGGGGSGGGGSGGGGSGGGGSEVQLVESGGGLVKPGGSLRLSCAASGFAFSTYDMSWVRQAPGKGLEWVSTISSGGSYTYYADSVKGRFTISRDNAKNSLYLQMNSLRAEDTAVYYCAPTTVVPFAYWGQGTLVTVSAGGGGSGGGGSGGGGSGGGGSHVQLVESGGGLVQPGGSLRLSCAASGFSLTDYGVHWVRQAPGKGLEWLGVIWSGGGTAYNTALISRFTISRDNSKNTLYLQMNSLRAEDTAVYYCARRGSYPYNYFDAWGCGTLVTVSSGGGGSGGGGSGGGGSGGGGSGGGGSGGGGSQAVVTQEPSLTVSPGGTVTLTCGSSTGAVTASNYANWVQQKPGQCPRGLIGGHNNRPPGVPARFSGSLLGGKAALTLLGAQPEDEAEYYCALWYSDHWVIGGGTKLTVLGTPLGDTTHTSGKPLDGEYFTLQIRGRERFEMFRELNEALELKDAQAGKEPGGSGGAPHHHHHH
notes: As TC170, with the other VH/VL orientation of the anti-GPA33 scFv; Carries the p53 SADA (tetramerization) domain; also called GPA33xDOTA SADA
B4: BC015 (G3A H1L4) (bispecific antibody, human IgG1, kappa, N297A)
heavy: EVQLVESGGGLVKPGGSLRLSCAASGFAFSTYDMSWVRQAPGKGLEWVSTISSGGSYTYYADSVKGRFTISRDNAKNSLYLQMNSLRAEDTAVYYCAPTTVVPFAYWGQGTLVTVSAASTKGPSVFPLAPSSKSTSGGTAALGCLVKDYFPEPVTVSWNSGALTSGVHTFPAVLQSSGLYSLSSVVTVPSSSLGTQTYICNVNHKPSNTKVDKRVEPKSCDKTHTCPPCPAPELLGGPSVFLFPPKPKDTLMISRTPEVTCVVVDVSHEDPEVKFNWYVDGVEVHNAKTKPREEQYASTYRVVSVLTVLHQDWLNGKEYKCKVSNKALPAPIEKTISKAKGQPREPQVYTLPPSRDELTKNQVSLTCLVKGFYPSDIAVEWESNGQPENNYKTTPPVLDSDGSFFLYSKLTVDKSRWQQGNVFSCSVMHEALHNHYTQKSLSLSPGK
light: DIQMTQSPSSLSASVGDRVTITCKASQNVRTVVAWYQQKPGKAPKTLIYLASNRHTGVPSRFSGSGSGTEFTLTISNLQPEDFATYYCLQHWSYPLTFGSGTKLEVKRTVAAPSVFIFPPSDEQLKSGTASVVCLLNNFYPREAKVQWKVDNALQSGNSQEKSVTEQDSKDSTYSLSSTLTLSKADYEKHKVYACEVTHQGLSSPVTKSFNRGECTSGGGGSGGGGSGGGGSHVQLVESGGGLVQPGGSLRLSCAASGFSLTDYGVHWVRQAPGKGLEWLGVIWSGGGTAYNTALISRFTISRDNSKNTLYLQMNSLRAEDTAVYYCARRGSYPYNYFDAWGCGTLVTVSSGGGGSGGGGSGGGGSGGGGSGGGGSGGGGSQAVVTQEPSLTVSPGGTVTLTCGSSTGAVTASNYANWVQQKPGQCPRGLIGGHNNRPPGVPARFSGSLLGGKAALTLLGAQPEDEAEYYCALWYSDHWVIGGGTKLTVLG
notes: GPA33xDOTA IgG-[L]-scFv with human IgG1 constant region carrying N297A and K322A; The anti-DOTA scFv is fused to the C-terminus of the light chain; also called BC177; GPA33 BsAb-IgG (BC177)

Tests used:
[1] = biological target: T1, Human GPA33 (recombinant protein, …); assay: SPR (Biacore), human GPA33 immobilised on the chip; KD relative to that of TC170
How it was run: (§1)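 Surface plasmon resonance on a Biacore system with immobilised recombinant human GPA33 (Novoprotein) was used to determine KD by kinetic fitting. The values given are each KD divided by the KD of a reference molecule.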

[2] = biological target: T2, Human GPA33 on GPA33+ colorectal cancer …; assay: FACS titration on LS174T cells, geometric mean MFI [Cont.]
[3] = biological target: T1, Human GPA33 (recombinant protein, …); assay: SPR (Biacore), human GPA33 immobilized on CM5 chip, two-state fit, kd1
How it was run: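 The off-rate (kd1) was measured by surface plasmon resonance on a Biacore T100, with recombinant human GPA33 (Novoprotein) immobilised on a CM5 chip. Antibodies were flowed over at five concentrations, 2-fold serial dilutions starting at 20 nM. The parent IgG1 was run at 25° C and bispecific formats at 25° C and 37° C. Sensorgrams were fitted with a two-state binding model to derive the kinetic parameters.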

[4] = biological target: T2, Human GPA33 on GPA33+ colorectal cancer …; assay: FACS titration on Colo205 cells, geometric mean MFI
[5] = biological target: T1, Human GPA33 (recombinant protein, …); assay: SPR (Biacore), human GPA33 immobilized on CM5 chip, two-state fit
Experimental: (§2) SPR analysis. Human GPA33 (Novoprotein, Summit, NJ) was immobilized on CM5 chips. Five concentrations of 2-fold serially diluted huA33 IgG1 or huA33-BsAbs (starting at 20 nM) were flowed over the chip using a Biacore™ T100 system (GE Healthcare, Chicago, IL). Binding kinetics of huA33 were measured at 25° C. and binding kinetics of huA33-BsAbs were measured at both 25° C. and 37° C. The sensorgrams were fitted with two state binding model for both to derive kinetic parameters.

[6] = biological target: T2, Human GPA33 on GPA33+ colorectal cancer …; assay: FACS binding to LS174T cells (GPA33+)
[7] = biological target: T2, Human GPA33 on GPA33+ colorectal cancer …; assay: FACS binding to SW1222 cells (GPA33+)
[8] = biological target: T1, Human GPA33 (recombinant protein, …); assay: SPR (Biacore), human GPA33 immobilized on CM5 chip, two-state fit, ka1
Experimental: as §2

[9] = biological target: T2, Human GPA33 on GPA33+ colorectal cancer …; assay: FACS binding to Colo205 cells (GPA33+)
[10] = biological target: T2, Human GPA33 on GPA33+ colorectal cancer …; assay: FACS titration on SW1222 cells, geometric mean MFI [Cont.]
[11] = biological target: T2, Human GPA33 on GPA33+ colorectal cancer …; assay: FACS binding to SW1222 cells (GPA33+); the text prints 1.78 nM for this pair
[12] = biological target: T2, Human GPA33 on GPA33+ colorectal cancer …; assay: FACS titration on SW1222 cells, geometric mean MFI (same value as in FIG. 4A; the text prints 1.78 nM) [contd.]
[13] = biological target: T2, Human GPA33 on GPA33+ colorectal cancer …; assay: FACS titration on SW1222 cells, geometric mean MFI (the text prints 1.78 nM and calls it IC50) [Cont.]
[14] = biological target: T2, Human GPA33 on GPA33+ colorectal cancer …; assay: flow cytometry, Colo 205 cells; Colo 205 cells
[15] = biological target: T2, Human GPA33 on GPA33+ colorectal cancer …; assay: flow cytometry, SW 1222 cells
[16] = biological target: T2, Human GPA33 on GPA33+ colorectal cancer …; assay: flow cytometry, LS 174T cells
[17] = biological target: T1, Human GPA33 (recombinant protein, …); assay: SPR (Biacore), human GPA33 immobilised on the chip; reference row
How it was run: as §1

[18] = biological target: T2, Human GPA33 on GPA33+ colorectal cancer …; assay: FACS titration on Colo205 cells, geometric mean MFI; remark: listed apart in the source
[19] = biological target: T2, Human GPA33 on GPA33+ colorectal cancer …; assay: FACS titration on LS174T cells, geometric mean MFI [Cont.]; remark: listed apart in the source
[20] = biological target: T2, Human GPA33 on GPA33+ colorectal cancer …; assay: FACS titration on SW1222 cells, geometric mean MFI [Cont.]; remark: listed apart in the source

Binder | Fold change of KD (relative to TC170, lower is better) [1] | EC50 [2] | koff [3] | EC50 [4] | Kd [5] | ka2 [5] | kd2 [5] | EC50 [6] | fold change of binding EC50 (relative to TC170, lower is better) [6] | EC50 [7] | fold change of binding EC50 (relative to TC170, lower is better) [7] | kon [8] | EC50 [9] | fold change of binding EC50 (relative to TC170, lower is better) [9] | EC50 [10] | also measured
B1 | 1.4 | 230 pM | 0.000857 s⁻¹ | 550 pM | 21.8 pM | 0.00636 s⁻¹ | 0.000611 s⁻¹ | 230 pM | 0.74 | 1050 pM | 0.64 | 3.44e+06 M⁻¹ s⁻¹ | 550 pM | 0.74 | 1050 pM | –
B2 | 1.5 | 220 pM | 0.000981 s⁻¹ | 530 pM | 24.2 pM | 0.00561 s⁻¹ | 0.00051 s⁻¹ | 220 pM | 0.71 | 1030 pM | 0.62 | 3.38e+06 M⁻¹ s⁻¹ | 530 pM | 0.72 | 1030 pM | –
B3 | 1.5 | – | 0.000886 s⁻¹ | – | 23 pM | 0.00663 s⁻¹ | 0.000628 s⁻¹ | – | 1.81 | – | 1.07 | 3.34e+06 M⁻¹ s⁻¹ | – | 1.41 | – | EC50 [11]: 1770 pM; EC50 [12]: 770 pM; EC50 [13]: 770 pM; EC50 [14]: 1040 pM; IC50 [15]: 1780 pM; IC50 [16]: 560 pM
B4 | – | – | 0.00141 s⁻¹ | – | 118 pM | 0.00307 s⁻¹ | 0.00177 s⁻¹ | – | – | – | – | 4.36e+06 M⁻¹ s⁻¹ | – | – | – | Fold change of KD (relative to BC015, lower is better) [17]: 1; EC50 [18]: 1040 pM; EC50 [19]: 390 pM; EC50 [20]: 710 pM
